Series [1] addresses T1, Zur (FurB) (Mycobacterium smegmatis) (UniProt A0R0S1).
T1 sequence: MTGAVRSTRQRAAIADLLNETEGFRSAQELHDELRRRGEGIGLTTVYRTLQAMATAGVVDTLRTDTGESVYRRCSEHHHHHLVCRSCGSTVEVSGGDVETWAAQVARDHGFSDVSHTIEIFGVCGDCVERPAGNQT
The series is described as follows: EMSA. (In general: A gel shift assay detects complexes by their altered migration in electrophoresis.)

Series [2] concerns the target T2, IdeR (Mycobacterium smegmatis) (UniProt A0QVZ3).
T2 sequence: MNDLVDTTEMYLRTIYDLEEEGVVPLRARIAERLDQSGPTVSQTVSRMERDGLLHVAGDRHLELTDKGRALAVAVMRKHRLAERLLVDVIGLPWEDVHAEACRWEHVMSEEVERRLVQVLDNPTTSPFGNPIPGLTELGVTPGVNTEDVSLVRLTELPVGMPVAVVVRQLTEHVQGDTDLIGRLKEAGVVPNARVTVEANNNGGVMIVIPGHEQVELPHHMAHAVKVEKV
The series is described as follows: EMSA.

As for “CGGGATCCCGCAACACCCTGGTCAGTGCCGCCCGCGTCTGACGGCGCACCGTTCGCGCTGCCGGCACCCCGGGCTCCATAATGAAAATCATGTTCAGTAAGCTACACTCTGCATATCGGGCTACCAACGAAATGGAGTATCGGTCATGATCTTGCCAGCCGTGCCTAAAAGCTTGGCCGCAGGGCCGAGTCGATTGGTCGCGGTCGCCTCGACAGTTAGCTTATGCAATGCTAACTTCGGGGCAAAGTTCAGGCGGATCGGCCGATGGCGGGCGTAGGTGAAGGAGACAGCGGGTACCCG (double strand) [rv0282 upstream region (pr1)]”, the binding entry in series [1] and in series [2] was “binds” each time.

The record behind these values is paper PMC2660348.
